According to article PMC7374751:

Tests used:
[1] = target: low-density lipoprotein receptor-related protein 1 (LRP-1) (UniProt Q07954); assay: SPR; BIAcore T200; LRP-1 immobilised on a CM5 chip by amine coupling (3000 RU); 25 °C; 150 mM NaCl, 10 mM CaCl2, 50 mM Tris-HCl, 0.01% Tween-20, pH 7.5; 30 μl/min; ligands or pre-formed complexes injected; one-site binding model; triplicate
[2] = target: TIMP-2 (Homo sapiens) (UniProt P16035); details: cited from earlier work
[3] = target: TIMP-3 (Homo sapiens) (UniProt P35625); details: cited from earlier work
[4] = target: TIMP-1 (Homo sapiens) (UniProt P01033); details: cited from earlier work
[5] = target: LRP-1 (Homo sapiens) (UniProt Q07954); details: cited from earlier work
Sequence of LRP-1 (Homo sapiens) (Q07954 20-4544): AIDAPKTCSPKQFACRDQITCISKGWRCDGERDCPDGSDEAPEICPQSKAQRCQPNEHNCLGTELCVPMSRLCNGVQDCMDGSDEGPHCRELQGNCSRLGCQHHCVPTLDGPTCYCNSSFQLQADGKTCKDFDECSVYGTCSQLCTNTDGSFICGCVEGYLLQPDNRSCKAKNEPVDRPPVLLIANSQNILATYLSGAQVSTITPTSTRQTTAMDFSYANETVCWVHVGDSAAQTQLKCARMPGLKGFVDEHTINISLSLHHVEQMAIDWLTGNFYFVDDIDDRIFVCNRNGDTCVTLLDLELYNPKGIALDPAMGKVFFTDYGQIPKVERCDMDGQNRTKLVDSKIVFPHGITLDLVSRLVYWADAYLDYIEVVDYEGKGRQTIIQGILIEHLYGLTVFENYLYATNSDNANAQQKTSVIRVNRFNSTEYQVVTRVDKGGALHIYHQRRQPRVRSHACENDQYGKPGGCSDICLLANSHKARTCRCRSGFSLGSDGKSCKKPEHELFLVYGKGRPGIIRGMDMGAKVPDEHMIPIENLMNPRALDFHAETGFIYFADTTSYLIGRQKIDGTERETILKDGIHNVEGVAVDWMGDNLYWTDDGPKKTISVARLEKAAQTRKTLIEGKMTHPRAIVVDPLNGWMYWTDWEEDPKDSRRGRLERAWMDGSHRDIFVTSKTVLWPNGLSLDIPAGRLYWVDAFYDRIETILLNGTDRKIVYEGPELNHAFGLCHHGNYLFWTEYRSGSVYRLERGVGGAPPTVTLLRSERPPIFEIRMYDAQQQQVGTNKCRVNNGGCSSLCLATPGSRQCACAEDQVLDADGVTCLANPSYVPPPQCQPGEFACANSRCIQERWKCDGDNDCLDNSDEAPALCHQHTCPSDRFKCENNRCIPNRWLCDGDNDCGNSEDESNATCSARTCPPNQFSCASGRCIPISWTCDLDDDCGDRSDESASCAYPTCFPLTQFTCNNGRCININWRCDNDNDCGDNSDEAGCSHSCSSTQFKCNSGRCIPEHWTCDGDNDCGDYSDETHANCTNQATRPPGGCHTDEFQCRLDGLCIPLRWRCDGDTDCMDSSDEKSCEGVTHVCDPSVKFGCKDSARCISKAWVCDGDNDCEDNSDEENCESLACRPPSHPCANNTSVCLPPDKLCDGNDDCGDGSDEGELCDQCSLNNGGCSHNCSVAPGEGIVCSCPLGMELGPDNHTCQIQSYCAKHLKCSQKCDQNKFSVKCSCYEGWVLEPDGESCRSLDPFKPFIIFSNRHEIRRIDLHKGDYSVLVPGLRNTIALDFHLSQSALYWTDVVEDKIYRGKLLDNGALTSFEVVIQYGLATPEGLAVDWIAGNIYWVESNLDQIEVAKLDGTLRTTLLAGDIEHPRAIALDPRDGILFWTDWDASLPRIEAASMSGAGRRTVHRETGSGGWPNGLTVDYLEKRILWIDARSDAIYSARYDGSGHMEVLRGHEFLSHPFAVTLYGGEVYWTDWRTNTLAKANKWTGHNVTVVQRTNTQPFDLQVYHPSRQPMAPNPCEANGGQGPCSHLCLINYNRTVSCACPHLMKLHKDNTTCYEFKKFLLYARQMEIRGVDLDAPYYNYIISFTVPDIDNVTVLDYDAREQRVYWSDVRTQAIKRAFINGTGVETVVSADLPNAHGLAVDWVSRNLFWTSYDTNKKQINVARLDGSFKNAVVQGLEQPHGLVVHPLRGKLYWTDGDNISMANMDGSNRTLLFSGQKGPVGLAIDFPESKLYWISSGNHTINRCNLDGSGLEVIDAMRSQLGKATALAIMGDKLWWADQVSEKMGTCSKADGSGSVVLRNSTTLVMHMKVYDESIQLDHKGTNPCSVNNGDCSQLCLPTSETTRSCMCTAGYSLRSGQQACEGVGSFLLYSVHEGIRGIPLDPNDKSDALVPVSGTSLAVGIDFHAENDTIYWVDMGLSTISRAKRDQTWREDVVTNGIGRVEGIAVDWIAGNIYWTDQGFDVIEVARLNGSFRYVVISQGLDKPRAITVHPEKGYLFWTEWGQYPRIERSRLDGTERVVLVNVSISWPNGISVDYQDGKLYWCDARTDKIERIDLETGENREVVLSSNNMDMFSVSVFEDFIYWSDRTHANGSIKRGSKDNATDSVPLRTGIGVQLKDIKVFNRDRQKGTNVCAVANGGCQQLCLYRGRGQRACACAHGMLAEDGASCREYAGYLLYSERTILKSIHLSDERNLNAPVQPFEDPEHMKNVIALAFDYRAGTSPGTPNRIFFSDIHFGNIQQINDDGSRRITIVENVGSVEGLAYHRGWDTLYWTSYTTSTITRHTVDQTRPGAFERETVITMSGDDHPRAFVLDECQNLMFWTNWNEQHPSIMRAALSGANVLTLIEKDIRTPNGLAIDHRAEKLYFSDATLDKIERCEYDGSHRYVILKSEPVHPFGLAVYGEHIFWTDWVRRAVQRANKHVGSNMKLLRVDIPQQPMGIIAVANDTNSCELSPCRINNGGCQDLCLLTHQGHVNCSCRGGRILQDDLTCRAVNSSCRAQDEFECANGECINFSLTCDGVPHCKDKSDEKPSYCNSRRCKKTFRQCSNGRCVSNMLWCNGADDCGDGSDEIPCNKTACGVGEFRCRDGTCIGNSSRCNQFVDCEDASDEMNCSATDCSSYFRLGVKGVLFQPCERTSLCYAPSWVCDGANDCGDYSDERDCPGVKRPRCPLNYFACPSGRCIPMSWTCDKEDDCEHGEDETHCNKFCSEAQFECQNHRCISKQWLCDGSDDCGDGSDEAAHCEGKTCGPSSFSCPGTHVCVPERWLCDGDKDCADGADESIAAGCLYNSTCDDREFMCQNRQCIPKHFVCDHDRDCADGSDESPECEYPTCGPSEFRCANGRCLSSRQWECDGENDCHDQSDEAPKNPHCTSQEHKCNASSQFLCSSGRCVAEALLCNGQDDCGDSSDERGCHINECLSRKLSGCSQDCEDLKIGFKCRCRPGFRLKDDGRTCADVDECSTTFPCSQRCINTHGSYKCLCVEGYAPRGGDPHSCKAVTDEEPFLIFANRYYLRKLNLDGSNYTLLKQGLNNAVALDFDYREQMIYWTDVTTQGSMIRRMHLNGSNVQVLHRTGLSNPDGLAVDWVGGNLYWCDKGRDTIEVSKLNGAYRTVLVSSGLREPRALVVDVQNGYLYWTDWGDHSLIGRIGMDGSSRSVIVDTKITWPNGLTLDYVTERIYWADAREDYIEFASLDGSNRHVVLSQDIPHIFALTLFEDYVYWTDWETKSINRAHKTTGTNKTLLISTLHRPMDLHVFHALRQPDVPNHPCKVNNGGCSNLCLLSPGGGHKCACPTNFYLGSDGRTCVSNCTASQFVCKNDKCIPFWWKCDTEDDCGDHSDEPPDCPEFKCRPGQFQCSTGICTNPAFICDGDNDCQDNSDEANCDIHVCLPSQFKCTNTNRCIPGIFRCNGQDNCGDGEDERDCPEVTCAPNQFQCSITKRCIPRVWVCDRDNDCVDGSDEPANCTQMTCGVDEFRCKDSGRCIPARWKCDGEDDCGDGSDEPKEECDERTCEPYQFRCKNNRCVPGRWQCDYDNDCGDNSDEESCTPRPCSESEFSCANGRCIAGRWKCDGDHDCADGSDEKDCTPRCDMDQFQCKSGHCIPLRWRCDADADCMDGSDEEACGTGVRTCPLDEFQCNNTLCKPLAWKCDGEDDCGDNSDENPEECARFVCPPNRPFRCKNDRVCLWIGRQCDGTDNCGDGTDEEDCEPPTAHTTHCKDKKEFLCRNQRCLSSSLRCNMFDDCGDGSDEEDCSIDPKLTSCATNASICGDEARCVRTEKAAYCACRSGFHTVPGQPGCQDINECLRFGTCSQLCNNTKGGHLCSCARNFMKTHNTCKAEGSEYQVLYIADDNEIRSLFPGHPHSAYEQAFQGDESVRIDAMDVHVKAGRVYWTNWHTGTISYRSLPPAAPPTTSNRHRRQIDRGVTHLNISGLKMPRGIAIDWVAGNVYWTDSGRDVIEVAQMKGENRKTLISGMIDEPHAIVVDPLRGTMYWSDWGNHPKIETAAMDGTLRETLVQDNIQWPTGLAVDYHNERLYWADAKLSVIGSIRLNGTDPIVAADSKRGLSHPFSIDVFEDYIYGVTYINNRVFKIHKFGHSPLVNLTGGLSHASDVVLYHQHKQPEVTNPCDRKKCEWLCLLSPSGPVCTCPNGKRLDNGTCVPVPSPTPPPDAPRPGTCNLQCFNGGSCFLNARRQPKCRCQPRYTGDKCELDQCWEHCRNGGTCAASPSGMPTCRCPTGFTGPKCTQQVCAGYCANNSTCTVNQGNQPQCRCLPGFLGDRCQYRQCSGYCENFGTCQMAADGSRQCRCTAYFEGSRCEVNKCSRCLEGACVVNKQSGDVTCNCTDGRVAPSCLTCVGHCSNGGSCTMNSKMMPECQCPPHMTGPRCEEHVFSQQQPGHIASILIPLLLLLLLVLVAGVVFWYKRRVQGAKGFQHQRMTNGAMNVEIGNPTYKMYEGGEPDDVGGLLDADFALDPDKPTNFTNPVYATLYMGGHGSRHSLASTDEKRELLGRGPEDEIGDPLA

[6] = target: low-density lipoprotein receptor-related protein 1 (LRP-1) (UniProt Q07954)

Sequence of MMP-1 (P03956 100-469): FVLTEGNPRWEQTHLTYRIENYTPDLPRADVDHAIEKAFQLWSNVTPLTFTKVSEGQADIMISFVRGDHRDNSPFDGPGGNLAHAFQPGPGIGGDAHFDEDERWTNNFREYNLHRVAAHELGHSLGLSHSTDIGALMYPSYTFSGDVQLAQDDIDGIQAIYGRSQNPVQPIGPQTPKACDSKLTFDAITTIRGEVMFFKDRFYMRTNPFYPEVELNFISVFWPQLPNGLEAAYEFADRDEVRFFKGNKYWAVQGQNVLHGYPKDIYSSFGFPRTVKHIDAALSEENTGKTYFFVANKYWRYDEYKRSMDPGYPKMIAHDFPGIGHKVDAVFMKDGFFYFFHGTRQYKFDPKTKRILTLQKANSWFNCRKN
Sequence of low-density lipoprotein receptor-related protein 1 (LRP-1) (Q07954 20-4544): as the sequence (Q07954 20-4544) above

“MMP-1 (E200A), catalytically inactive form of MMP-1 (enzyme)” gave a Kd [1] of 34.6 nM, a koff [1] of 0.00468 s⁻¹ and a kon [1] of 136000 M⁻¹ s⁻¹.
In the case of MMP-1 (from UniProt P03956), the Ki [2] is given as 1.03 nM, the Ki [3] is given as 1.1 nM and the Ki [4] is given as 0.38 nM.
Work on MMP-1/N-TIMP-3 complex yielded a Kd [1] of 4.3 nM, a koff [1] of 0.00246 s⁻¹ and a kon [1] of 573000 M⁻¹ s⁻¹.
Work on “MMP-1/TIMP-1 complex (from UniProt P01033 24-207)” yielded a Kd [1] of 16.5 nM, a koff [1] of 0.0064 s⁻¹ and a kon [1] of 390000 M⁻¹ s⁻¹.
In the case of “MMP-1/TIMP-2 complex (from UniProt P16035 27-220)”, the Kd [1] is reported as 7.8 nM, the koff [1] is reported as 0.00327 s⁻¹ and the kon [1] is reported as 419000 M⁻¹ s⁻¹.
For “MMP-1/TIMP-3 complex (from UniProt P35625 24-211)”, the Kd [1] was 4.96 nM, the koff [1] was 0.00228 s⁻¹ and the kon [1] was 461000 M⁻¹ s⁻¹.
Work on “MMP-13 (E204A), catalytically inactive mutant (enzyme)” yielded a Kd [1] of 25.6 nM, a koff [1] of 0.00598 s⁻¹ and a kon [1] of 234000 M⁻¹ s⁻¹.
For “MMP-13/TIMP-1 complex (from UniProt P45452 20-471; P01033 24-207)”, the Kd [1] was 10.6 nM, the koff [1] was 0.00345 s⁻¹ and the kon [1] was 326000 M⁻¹ s⁻¹.
In the case of “MMP-13/TIMP-2 complex (from UniProt P45452 20-471; P16035 27-220)”, the Kd [1] is reported as 5.59 nM, the koff [1] is reported as 0.00241 s⁻¹ and the kon [1] is reported as 431000 M⁻¹ s⁻¹.
Work on “MMP-13/TIMP-3 complex (from UniProt P45452 20-471; P35625 24-211)” yielded a Kd [1] of 3.35 nM, a koff [1] of 0.00295 s⁻¹ and a kon [1] of 882000 M⁻¹ s⁻¹.
In the case of RAP (from UniProt P30533), the Kd [5] is listed as 1.4 nM.
With full length MMP-1 (enzyme) the decrease in clearance of 10 nM intact [35S]MMP-1 from the conditioned medium of HTB94 cells, 0-24 h [6] was 20%.
